Results: patent publication US5118793A, “Modified heparin cofactor II” (Washington University, priority 1991, dated 1992)
Residue numbers refer to the chain shown, from its start.

B1: native rHCII: recombinant full-length heparin cofactor II expressed in E. coli; amino acid sequence identical to HCII purified from human plasma (protein, UniProt P05546 20-499, looked up)
Heparin cofactor 2: GSKGPLDQLEKGGETAQSADPQWEQLNNKNLSMPLLPADFHKENTVTNDWIPEGEEDDDYLDLEKIFSEDDDYIDIVDSLSVSPTDSDVSAGNILQLFHGKSRIQRLNILNAKFAFNLYRVLKDQVNTFDNIFIAPVGISTAMGMISLGLKGETHEQVHSILHFKDFVNASSKYEITTIHNLFRKLTHRLFRRNFGYTLRSVNDLYIQKQFPILLDFKTKVREYYFAEAQIADFSDPAFISKTNNHIMKLTKGLIKDALENIDPATQMMILNCIYFKGSWVNKFPVEMTHNHNFRLNEREVVKVSMMQTKGNFLAANDQELDCDILQLEYVGGISMLIVVPHKMSGMKTLEAQLTPRVVERWQKSMTNRTREVLLPKFKLEKNYNLVESLKLMGIRMLFDKNGNMAGISDQRIAIDLFKHQGTITVNEEGTQATTVTTVGFMPLSTQVRFTVDRPFLFLIYEHRTSCLLFMGRVANPSRS
modifications: recombinant, E. coli
B2: HCII: heparin cofactor II, a 65,600 dalton plasma glycoprotein, serpin that inhibits thrombin (protein, UniProt P05546 20-499, looked up)
Heparin cofactor 2: B1 Heparin cofactor 2
B3: rHCII(Leu444 →Arg): heparin cofactor II in which the leucine residue at position 444 is replaced by arginine; recombinant, expressed in E. coli (protein, UniProt P05546 20-499, looked up, variant L444R)
Heparin cofactor 2: B1 Heparin cofactor 2 with L444R
modifications: recombinant, E. coli-expressed
notes: heparin cofactor II in which the leucine residue at position 444 is replaced by arginine; recombinant, expressed in E. coli

Tests used:
chymotrypsin = assay: Inhibition of chymotrypsin by rHCII, chromogenic substrate assay; assay type: biochemical, human
Description: Inhibition of proteases by rHCII--Protease inhibition by rHCII was determined by incubating 90 μl of the partially purified rHCII (or the corresponding heparin-Sepharose fractions of a control lysate from cells transformed with pMON-5840) with 5 μl of the protease and 5 μl of either glycosaminoglycan or water in a disposable polystyrene cuvette at room temperature. Final concentrations of the proteases were as follows: thrombin, 15 nM; chymotrypsin, 21 nM; factor Xa, 16 nM; and kallikrein, 10 nM. After a specified period of time from 5 seconds (s) to 150 min, 300-500 μl of the appropriate chromogenic substrate was added, and the absorbance at 405 nm was recorded continuously for 100 s. The rate of change of absorbance was proportional to the concentration of active protease remaining in the incubation. […]
Protease inhibition by rHCII in the absence of a glycosaminoglycan--The time courses of inhibition of thrombin, factor Xa, kallikrein, and chymotrypsin by native rHCII(Leu444 →Arg) in the absence of a glycosaminoglycan are indicated in FIG. 3. […] The pseudo-first-order rate constants (k1) for protease inhibition were determined by fitting the data to the following equation: k1 t=1n([P]0 /[P]t), in which [P]0 =initial prolease activity and [P]t =protease activity at time=t. The second-order rate constants (k2) were then calculated by dividing k by the initial rHCII concentration. […]

thrombin [1] = assay: Inhibition of thrombin by rHCII, chromogenic substrate Chromozym TH, second-order rate constants; assay type: biochemical, human; details: for Increase in the rate constant for thrombin inhibition produced by dermatan sulfate: dermatan sulfate versus no GAG; for Increase in the rate constant for thrombin inhibition produced by heparin: heparin versus no GAG
Description: Inhibition of proteases by rHCII--Protease inhibition by rHCII was determined by incubating 90 μl of the partially purified rHCII (or the corresponding heparin-Sepharose fractions of a control lysate from cells transformed with pMON-5840) with 5 μl of the protease and 5 μl of either glycosaminoglycan or water in a disposable polystyrene cuvette at room temperature. Final concentrations of the proteases were as follows: thrombin, 15 nM; chymotrypsin, 21 nM; factor Xa, 16 nM; and kallikrein, 10 nM. After a specified period of time from 5 seconds (s) to 150 min, 300-500 μl of the appropriate chromogenic substrate was added, and the absorbance at 405 nm was recorded continuously for 100 s. The rate of change of absorbance was proportional to the concentration of active protease remaining in the incubation. The amounts added and concentrations of each substrate were as follows: Chromozym TH (thrombin), 500 μl, 0.1 mM; N-succinyl-Ala-Ala-Pro-Phe-p-nitroanilde (chymotrypsin), 300 μl, 0.5 mM; Spectrozyme FXa (factor Xa), 400 μl, 0.125 mM; and S-2302 (kallikrein), 300 μl, 0.4 mM.
Protease inhibition by rHCII in the absence of a glycosaminoglycan--The time courses of inhibition of thrombin, factor Xa, kallikrein, and chymotrypsin by native rHCII(Leu444 →Arg) in the absence of a glycosaminoglycan are indicated in FIG. 3. The incubations were performed under pseudo-first-order conditions, such that the initial concentration of rHCII was greater than the concentration of protease. The pseudo-first-order rate constants (k1) for protease inhibition were determined by fitting the data to the following equation: k1 t=1n([P]0 /[P]t), in which [P]0 =initial prolease activity and [P]t =protease activity at time=t. The second-order rate constants (k2) were then calculated by dividing k by the initial rHCII concentration. It was observed that rHCII(Leu444 →Arg) inhibits thrombin almost 100 times more rapidly than native rHCII in the absence of a glycosaminoglycan Furthermore, rHCII(Leu444 →Arg) inhibits factor Xa and kallikrein, while inhibition of these proteases by native rHCII is undetectable.
Inhibition of thrombin by rHCII in the presence dermatan sulfate or heparin--The time course of inhibition of thrombin was determined in the presence of various concentrations of dermatan sulfate or heparin.

thrombin [2] = details: cited from earlier work

| Molecule | Effect of dermatan sulfate on the rate of inhibition of chymotrypsin (chymotrypsin) | Increase in the rate constant for thrombin inhibition produced by dermatan sulfate (thrombin [1]) | Increase in the rate constant for thrombin inhibition produced by heparin (thrombin [1]) | Increase of the rate of thrombin inhibition by heparin and dermatan sulfate (thrombin [2]) |
| --- | --- | --- | --- | --- |
| B1 | does not significantly increase | ~3500 fold | about 40 fold |  |
| B2 |  |  |  | ~ 1000 fold |
| B3 |  | much smaller effect | minimal effect |  |
